Laboratory results taken from patent US20170190774A1 (REPROPHARM, published 2017).
Like-named read-outs stand apart in the source and are kept apart here.

Experiments:
[1] = biological target: T1, human FSH Puregon (recombinant human FSH, Merck Schering-Plough) (human, UniProt P01215 25-116; P01225 19-129); test: ELISA, hormone adsorbed on the plate, antibody titrated; (A/B)x100 relative to oFSH
T1 construct: mature; Recombinant pharmaceutical preparation; also called hFSH (Puregon); hFSH Puregon
Description: (§1) The specificity of the antibodies and of the scFv thereof was studied by the ELISA technique. Each hormone evaluated was prepared at the concentration of 10 μg/ml in a 0.1M sodium carbonate buffer, pH 9.6, and distributed in a proportion of 100 μl per well on an ELISA plate. The adsorption time was 18 hours at +4° C. After five washes, the wells were treated with 100 μl of PBS supplemented with 0.1% Tween and 1% BSA for 45 minutes at 37° C., then each antibody or scFv was distributed in a proportion of 100 μl/well and incubated for one hour at 37° C. On each hormone evaluated, the antibodies and the scFvs were distributed at various concentrations according to a range of 10 to 250 μg/ml for the antibodies and of 10 to 150 or 200 μg/ml for the scFvs.
(§2) After five washes, a secondary antibody coupled to peroxidase (HRP) was distributed in a proportion of 100 μl/well and incubated for one hour at 37° C. […] For the scFvs, an anti-His Tag HRP (Ref. R93125 Life Technologies, France) was used. […] After the reaction had been stopped with 1M H₂SO₄ (50 μl/well), the strength of the colored reaction (optical density) was measured using a spectrophotometer for ELISA plates.
(§3) The percentage of cross reaction was calculated conventionally by comparing the dose-response curves obtained with the concentration range of the antibody or of the scFv.

[2] = biological target: T2, human FSH Fostimon (purified FSH extracted from urine, Laboratoire Genévrier) (human, UniProt P01215 25-116; P01225 19-129); test: as above
T2 construct: mature; Extracted pharmaceutical preparation; also called hFSH (Fostimon); hFSH Fostimon
Description: as §1, §2, §3

[3] = biological target: T3, human FSH Gonal-F (recombinant human FSH, Merck Serono) (human, UniProt P01215 25-116; P01225 19-129); test: as above
T3 construct: mature; Recombinant pharmaceutical preparation; also called hFSH (Gonal F); hFSH Gonal-F
Description: as §1, §2, §3

porcine FSH (pFSH) [4] = biological target: T4, porcine FSH (pFSH) (porcine, UniProt P01219 25-120; P01228 21-129); test: as above
Description: as §1, §2, §3

β-subunit of ovine FSH [5] = biological target: T5, β-subunit of ovine FSH (ovine, UniProt P01227 20-129); test: ELISA, subunit adsorbed on the plate, antibody titrated; (A/B)x100 relative to oFSH
T5 construct: mature; Isolated subunit adsorbed on the ELISA plate; also called β-s.u. oFSH; β-oFSH

α-subunit of ovine FSH [6] = biological target: T6, α-subunit of ovine FSH (ovine, UniProt P01218 25-120); test: as above
β-subunit of human FSH [7] = biological target: T7, β-subunit of human FSH (human, UniProt P01225 19-129); test: as above
T7 construct: mature; Isolated subunit adsorbed on the ELISA plate; also called β-s.u. hFSH

ovine FSH (oFSH) [8] = biological target: T8, ovine FSH (oFSH) (ovine, UniProt P01218 25-120; P01227 20-129); test: cell-based or functional assay
[9] = biological target: T3, human FSH Gonal-F (recombinant human …); test: cell-based or functional assay
β-subunit of ovine FSH [10] = biological target: T5, β-subunit of ovine FSH; test: ELISA, subunit adsorbed on the plate, antibody titrated; (A/B)x100 relative to oFSH; remark: listed apart in the source
Description: as §1, §2, §3

α-subunit of ovine FSH [11] = biological target: T6, α-subunit of ovine FSH; test: as above; remark: listed apart in the source
Description: as §1, §2, §3

β-subunit of human FSH [12] = biological target: T7, β-subunit of human FSH; test: as above; remark: listed apart in the source
Description: as §1, §2, §3

ovine FSH (oFSH) [13] = biological target: T8, ovine FSH (oFSH); test: ELISA saturation binding, one site-specific binding fit in GraphPad Prism (estimate); differs from Table 25
ovine FSH (oFSH) [14] = biological target: T8, ovine FSH (oFSH); test: ELISA saturation binding, one site-specific binding fit in GraphPad Prism (estimate)
Description: as §1

ovine LH (oLH) [15] = biological target: T9, ovine LH (oLH) (ovine, UniProt P01218 25-120; P01231 21-141); test: as above
Description: as §1

[16] = biological target: T10, equine chorionic gonadotropin (eCG) (equine, UniProt P01220 25-120; P08751 21-169); test: as above
T10 construct: mature; Alpha/beta dimer
Description: as §1

bovine LH (bLH) [17] = biological target: T11, bovine LH (bLH) (bovine, UniProt P01217 25-120; P04651 21-141); test: as above
Description: as §1

[18] = biological target: T1, human FSH Puregon (recombinant human …); test: as above
Description: as §1

[19] = biological target: T12, hCG Chorulon (human chorionic gonadotropin extracted from urine, MSD) (human, UniProt P01215 25-116; P0DN86 21-165); test: as above
T12 construct: mature; Extracted veterinary preparation
Description: as §1

[20] = biological target: T2, human FSH Fostimon (purified FSH …); test: as above
Description: as §1

[21] = biological target: T3, human FSH Gonal-F (recombinant human …); test: as above
Description: as §1

[22] = biological target: T13, hCG Endo 5000 (purified human chorionic gonadotropin, Schering-Plough) (human, UniProt P01215 25-116; P0DN86 21-165); test: as above
T13 construct: mature; Extracted pharmaceutical preparation
Description: as §1

porcine LH (pLH) [23] = biological target: T14, porcine LH (pLH) (porcine, UniProt P01219 25-120; P01232 21-141); test: as above
Description: as §1

porcine FSH (pFSH) [24] = biological target: T4, porcine FSH (pFSH); test: as above
Description: as §1

ovine LH (oLH) [25] = biological target: T9, ovine LH (oLH); test: ELISA, hormone adsorbed on the plate, scFv titrated, anti-His HRP; (A/B)x100 relative to oFSH
Description: as §1, §2, §3

bovine LH (bLH) [26] = biological target: T11, bovine LH (bLH); test: as above
Description: as §1, §2, §3

[27] = biological target: T1, human FSH Puregon (recombinant human …); test: as above
Description: as §1, §2, §3

[28] = biological target: T2, human FSH Fostimon (purified FSH …); test: as above
Description: as §1, §2, §3

[29] = biological target: T3, human FSH Gonal-F (recombinant human …); test: as above
Description: as §1, §2, §3

porcine LH (pLH) [30] = biological target: T14, porcine LH (pLH); test: as above
Description: as §1, §2, §3

porcine FSH (pFSH) [31] = biological target: T4, porcine FSH (pFSH); test: as above
Description: as §1, §2, §3

T3 sequence (P01215 25-116, chain 1 of 2): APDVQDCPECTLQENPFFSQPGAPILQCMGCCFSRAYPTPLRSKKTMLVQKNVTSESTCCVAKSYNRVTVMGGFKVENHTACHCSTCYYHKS
T3 sequence (P01225 19-129, chain 2 of 2): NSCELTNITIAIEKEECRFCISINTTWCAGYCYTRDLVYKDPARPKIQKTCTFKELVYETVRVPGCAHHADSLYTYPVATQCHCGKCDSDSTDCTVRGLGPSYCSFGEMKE
T1 sequence (P01215 25-116, chain 1 of 2): as the sequence (P01215 25-116, chain 1 of 2) above
T1 sequence (P01225 19-129, chain 2 of 2): as the sequence (P01225 19-129, chain 2 of 2) above
T2 sequence (P01215 25-116, chain 1 of 2): as the sequence (P01215 25-116, chain 1 of 2) above
T2 sequence (P01225 19-129, chain 2 of 2): as the sequence (P01225 19-129, chain 2 of 2) above
T7 sequence (P01225 19-129): as the sequence (P01225 19-129, chain 2 of 2) above
T10 sequence (P01220 25-120, chain 1 of 2): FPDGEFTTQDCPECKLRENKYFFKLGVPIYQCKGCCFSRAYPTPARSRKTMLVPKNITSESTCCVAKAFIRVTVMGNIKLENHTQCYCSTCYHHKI
T10 sequence (P08751 21-169, chain 2 of 2): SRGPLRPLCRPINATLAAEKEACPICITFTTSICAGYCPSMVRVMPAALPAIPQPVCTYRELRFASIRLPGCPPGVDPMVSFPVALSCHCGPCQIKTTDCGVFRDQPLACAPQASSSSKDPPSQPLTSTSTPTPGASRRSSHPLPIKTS
T12 sequence (P01215 25-116, chain 1 of 2, other chains not shown): as the sequence (P01215 25-116, chain 1 of 2) above
T13 sequence (P01215 25-116, chain 1 of 2, other chains not shown): as the sequence (P01215 25-116, chain 1 of 2) above

B1: CA5 monoclonal antibody (antibody, IgG2a, V domains shown)
VH: EVKLVESGGGLVQPGGSLRLSCATSGFTFSDFYMEWVRQPPGKRLEWIAASRNKAKDYTTEYSASVKGRFIVSRDTSQSILYLQMNALRAEDTAIYFCARDARFAYWGQGTLVTVSA
VL: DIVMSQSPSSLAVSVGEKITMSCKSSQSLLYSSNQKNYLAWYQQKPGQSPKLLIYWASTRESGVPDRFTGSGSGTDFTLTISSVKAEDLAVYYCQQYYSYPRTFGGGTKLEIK
notes: also called CA5 antibody; CA5 ligand
cross reaction [1]: 70% | cross reaction [2]: 76% | cross reaction [3]: 128% | cross reaction (porcine FSH (pFSH) [4]): 134% | cross reaction (β-subunit of ovine FSH [5]): 80% | cross reaction (α-subunit of ovine FSH [6]): 6% | cross reaction (β-subunit of human FSH [7]): 50% | EC50 of the oFSH/CA5 complex, cAMP (GloSensor), HEK 293 cells with the human FSH receptor (ovine FSH (oFSH) [8]): 0.000283 µM | amplification of cAMP secretion, bovine granulosa cells (ovine FSH (oFSH) [8]): 1.3 fold | EC50 of the hFSH/CA5 complex, cAMP (GloSensor), HEK 293 cells with the human FSH receptor [9]: 0.000136 µM

B2: CH10 monoclonal antibody (antibody, IgM, V domains shown)
VH: EVQLVESGGGLVQPKGSLKLSCAASGFTFNTYAMNWVRQAPGKGLEWVARIRSKSNNYATYYADSVKDRFTISRDDSQSMLYLQMNNLKTEDTAMYYCVRQDYYGSSYFDYWGQGTTLTVSS
VL: DIVMTQSPATLSVTPGDRVSLSCRASQSISDYLHWYQQKSHESPRLLIKYASQSISGIPSRFSGSGSGSDFTLSINSVEPEDVGVYYCQNGHSFPYTFGGGTKLEIK
notes: also called CH10 antibody; CH10 ligand
cross reaction [1]: 71% | cross reaction [2]: 100% | cross reaction [3]: 50% | cross reaction (porcine FSH (pFSH) [4]): 24% | cross reaction (β-subunit of ovine FSH [10]): 88% | cross reaction (α-subunit of ovine FSH [11]): 43% | cross reaction (β-subunit of human FSH [12]): 40% | amplification of cAMP secretion, bovine granulosa cells (ovine FSH (oFSH) [8]): 5.5 fold | EC50 of the hFSH/CH10 complex, cAMP (GloSensor), HEK 293 cells with the human FSH receptor [9]: 0.000317 µM

B3: CH10 scFv (scFv)
scFv: QVQLQQSGGGLVQPKGSLKLSCAASGFTFNTYAMNWVRQAPGKGLEWVARIRSKSNNYATYYADSVKDRFTISRDDSQSMLYLQMNNLKTEDTAMYYCVRQDYYGSSYFDYWGQGTTLTVSSGGGGSGGGGSGGGGSDIQMTQTPATLSVTPGDRVSLSCRASQSISDYLHWYQQKSHESPRLLIKYASQSISGIPSRFSGSGSGSDFTLSINSVEPEDVGVYYCQNGHSFPYTFGGGTKLEIKHHHHHH
notes: VH-(Gly4Ser)3-VL-His6, made in the E. coli periplasm; also called scFv derived from the CH10 antibody
Kd (ovine FSH (oFSH) [13]): 7.51 µM | Kd (ovine FSH (oFSH) [14]): 2.85 µM | Kd (ovine LH (oLH) [15]): 1.55 µM | Kd [16]: 1.97 µM | Kd (bovine LH (bLH) [17]): 1.94 µM | Kd [18]: 11.5 µM | Kd [19]: 1.47 µM | Kd [20]: 1.59 µM | Kd [21]: 1.82 µM | Kd [22]: 2.09 µM | Kd (porcine LH (pLH) [23]): 2.47 µM | Kd (porcine FSH (pFSH) [24]): 5.22 µM | cross reaction (ovine LH (oLH) [25]): 68% | cross reaction (bovine LH (bLH) [26]): 52% | cross reaction [27]: 67% | cross reaction [28]: 30% | cross reaction [29]: 32% | cross reaction (porcine LH (pLH) [30]): 63% | cross reaction (porcine FSH (pFSH) [31]): 175%
